According to IntAct's records for PubMed 34799561:

B1: DNA damage-inducible transcript 3 protein (Homo sapiens), P35638 (parent)
chain: MAAESLPFSFGTLSSWELEAWYEDLQEVLSSDENGGTYVSPPGNEEEESKIFTTLDPASLAWLTEEEPEPAEVTSTSQSPHSPDSSQSSLAQEEEEEDQGRTRKRKQSGHSPARAGKQRMKEKEQENERKVAQLAEENERLKQEIERLTREVEATRRALIDRMVNLHQA
B2: Ubiquitin-associated protein 2-like (Homo sapiens), Q14157 (parent)
chain: MMTSVGTNRARGNWEQPQNQNQTQHKQRPQATAEQIRLAQMISDHNDADFEEKVKQLIDITGKNQDECVIALHDCNGDVNRAINVLLEGNPDTHSWEMVGKKKGVSGQKDGGQTESNEEGKENRDRDRDYSRRRGGPPRRGRGASRGREFRGQENGLDGTKSGGPSGRGTERGRRGRGRGRGGSGRRGGRFSAQGMGTFNPADYAEPANTDDNYGNSSGNTWNNTGHFEPDDGTSAWRTATEEWGTEDWNEDLSETKIFTASNVSSVPLPAENVTITAGQRIDLAVLLGKTPSTMENDSSNLDPSQAPSLAQPLVFSNSKQTAISQPASGNTFSHHSMVSMLGKGFGDVGEAKGGSTTGSQFLEQFKTAQALAQLAAQHSQSGSTTTSSWDMGSTTQSPSLVQYDLKNPSDSAVHSPFTKRQAFTPSSTMMEVFLQEKSPAVATSTAAPPPPSSPLPSKSTSAPQMSPGSSDNQSSSPQPAQQKLKQQKKKASLTSKIPALAVEMPGSADISGLNLQFGALQFGSEPVLSDYESTPTTSASSSQAPSSLYTSTASESSSTISSNQSQESGYQSGPIQSTTYTSQNNAQGPLYEQRSTQTRRYPSSISSSPQKDLTQAKNGFSSVQATQLQTTQSVEGATGSAVKSDSPSTSSIPPLNETVSAASLLTTTNQHSSSLGGLSHSEEIPNTTTTQHSSTLSTQQNTLSSSTSSGRTSTSTLLHTSVESEANLHSSSSTFSTTSSTVSAPPPVVSVSSSLNSGSSLGLSLGSNSTVTASTRSSVATTSGKAPPNLPPGVPPLLPNPYIMAPGLLHAYPPQVYGYDDLQMLQTRFPLDYYSIPFPTPTTPLTGRDGSLASNPYSGDLTKFGRGDASSPAPATTLAQPQQNQTQTHHTTQQTFLNPALPPGYSYTSLPYYTGVPGLPSTFQYGPAVFPVAPTSSKQHGVNVSVNASATPFQQPSGYGSHGYNTGVSVTSSNTGVPDISGSVYSKTQQSFEKQGFHSGTPAASFNLPSALGSGGPINPATAAAYPPAPFMHILTPHQQPHSQILHHHLQQDGQTGSGQRSQTSSIPQKPQTNKSAYNSYSWGAN

Variants of: B1
Conditions: with G3BP1, Q13283
Target sequence in this assay (Q13283 whole entry, looked up): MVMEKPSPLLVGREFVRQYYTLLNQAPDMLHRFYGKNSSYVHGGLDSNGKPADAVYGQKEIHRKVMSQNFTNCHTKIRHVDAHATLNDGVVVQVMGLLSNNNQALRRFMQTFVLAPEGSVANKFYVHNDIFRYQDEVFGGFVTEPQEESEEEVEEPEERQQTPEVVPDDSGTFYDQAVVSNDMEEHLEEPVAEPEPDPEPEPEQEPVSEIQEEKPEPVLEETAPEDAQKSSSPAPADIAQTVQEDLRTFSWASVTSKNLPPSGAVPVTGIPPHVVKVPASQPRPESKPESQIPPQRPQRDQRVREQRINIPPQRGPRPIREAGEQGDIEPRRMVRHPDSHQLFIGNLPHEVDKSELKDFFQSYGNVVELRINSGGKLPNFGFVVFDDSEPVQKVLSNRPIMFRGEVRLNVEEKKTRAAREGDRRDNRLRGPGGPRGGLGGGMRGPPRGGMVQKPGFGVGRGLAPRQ

Variant	effect of a mutation on the interaction
F10A;G11A	disrupting interaction strength

Variants of: B2
Conditions: with G3BP1, Q13283
Target sequence in this assay (Q13283 whole entry, looked up): as above

Variant	effect of a mutation on the interaction
F518A;F523A	disrupting interaction strength

Variants of: B2
Conditions: with G3BP1, Q13283
Remark: another data set of the same source
Target sequence in this assay (Q13283 whole entry, looked up): as above

Variant	effect of a mutation on the interaction
F518A;F523A	decreasing interaction strength
